Source: the RNAGym collection of RNA variant scans (doi:10.7554/elife.90254)

B1: LINE1-full (parent)
chain: UACGUAGGUGGUUUUCCCCUGAUAGUGCUAAGGGGGCCUGGAAGUUUGGACUGGGCAGAGCUCAACACAGCGUGGCAAAGUGGCUGUGGCUAGACUGCCUCUCUGGAUUCCUCGUCACUCAGCAGGGCAUCUCUGAGAGAAAUGCC

Variants of: B1
Test: self-cleavage, relative activity (ratio to wild type); higher = more cleavage; in vitro, sequencing; the parent is a self-cleaving ribozyme

Variant	self-cleavage
C99U A141G	0.62
C99U A141C	0.55
A94G G125C	0.57
A92G U100C	0.14
G93U A142U	0.04
U96C A138U	0.1
A94G G114A	0.23
C99A U108C	1.2
A94U U100C	0.33
U96C U132C	0.11
U96C U132A	0.11
A94G C99U	0.19
A92G A129G	0
A92G U115A	0.12
C95U A138U	0.2
A94G C146U	0.47
U96G A117C	0
U96G A141G	0
G93A A121U	0.06
A94U A138G	0.32
C98U A121U	0.38
C98U A121G	0.44
C98U U100G	0.05
C99G A129G	0.3

Variant	self-cleavage
A92U U143C	0.99
A92U U143A	0.6
U96G U108C	0.13
U96G U108G	0.16
C95U A107G	0.21
U96C G137U	0.06
C98U U134C	0.3
U96G U132C	0.16
C95U G135A	0.17
A94G A129G	0.11
C98U U108C	0.48
C99U A142G	0.58
U96A C110U	0.08
U96A U134A	0.08
A92U C128U	0.47
A94U U134G	0.2
A94U U134A	0.25
A94U U134C	0.32
A92G C120U	0.07
A94G U109C	0.07
A94G U109A	0.39
A92C G93U	0.06
A92U U119A	0.72
U96C U130C	0.24

Variant	self-cleavage
U91G A129U	0.05
C98A A140G	0.12
U96C A140U	0.14
U96A G139C	0.04
U96A U112A	0.06
A94U C116U	0.33
U96A U119A	0.09
U96A U119C	0.11
G97U U108C	0.06
U96C C111U	0.12
C98A A141G	0.17
C98U G105C	0.75
G93A A138G	0.06
U96C C113G	0.11
U96C C113U	0.05
U96C C113A	0.05
U91C U112C	0.59
C99U U134A	0.37
U96C A136C	0
U96C A136U	0.15
U96C A136G	0.15
A94G A107U	0.3
A94G C95A	0.07
A92U A140G	0.53

Variant	self-cleavage
G93U A141U	0.02
G93U A141G	0.03
U96A U109A	0.05
U96C U104C	0.13
C95U U130C	0.21
A94G U112C	0.13
G97C U108A	0.14
A92U U130C	0.73
A92U U130G	1.61
A92G C131G	0.22
U96A C116A	0.21
C95A C146U	0.08
U96C G135A	0.24
G97U C145U	0.04
U96C U119G	0.13
A94C A124G	0.02
A94C A124U	0
G93U U108C	0.05
U91G A94G	0
A94U C101U	0.31
G97A U112A	0.16
G93A U119C	0.04
G93A U119A	0.03
U91C U109A	0.48

Variant	self-cleavage
U96C A141G	0.18
U91C U119C	1.4
U96C U100A	0.08
U96C U100C	0.38
C95U A129G	0.19
C99U C145U	0.82
A94G C128U	0.22
C95U U115C	0.54
U96C A121U	0.13
G97A A136G	0.19
G97A U134G	0.06
A92U G139A	0.76
A92G U134A	0
G97U U104A	0.02
C95U U104A	0.1
U96C U143C	0.14
U96A U132C	0.12
A92U U112C	0.48
C99A U109C	0.41
A92U A107G	0.94
A94G U115A	0.34
A94G U115C	0.45
U96A U104A	0.07
U96A U104C	0.07

Variant	self-cleavage
A92U A136G	0.94
C95U A121G	0.33
A92G A94G	0.12
A94G U130A	0.34
A94G U130C	0.36
U96A G122C	0.07
C99U U119C	0.96
C99U U119A	0.79
A94U A141U	0.42
A94U A141G	0.37
C95U A117G	0.14
A94G U143C	0.43
A94U A136U	0.29
A94G A141G	0.25
A92G A124U	0.09
G97C U102C	0.14
C95A A129G	0.09
U91G	0.04
A94G U104A	0.22
A94U U119C	0.28
C98U A141G	0.45
U96A A124G	0.06
U96C A142U	0.12
U96C A142G	0.13

Variant	self-cleavage
C98U A138G	1.15
C99A U119C	0.82
A92G U102C	0.11
U96A U108C	0.08
A92G U112C	0.13
A92G U112A	0.09
U96A G137A	0.12
C95A U108C	0
U91C U130C	0.77
A94G C145U	0.17
U91C U115C	0.83
U91C U115G	0.69
U91C U115A	0.56
G97U C123U	0.03
C99U A107G	0.83
A92U G105A	0.77
A92G G144A	0.09
A92G A121G	0.11
A92G A121U	0.09
C99A A136G	0.99
C95U U108C	0.42
U96A A121U	0.05
A94C U130C	0.09
U96A A140G	0.06

Variant	self-cleavage
U96A A140U	0
A94G C116U	0.28
G97U G127A	0.04
C98U A142U	0.47
A94U U109C	0.22
A92G A107G	0.17
A94U	0.29
A94G	0.31
A94C	0.06
A94U U132C	0.52
U96A U130A	0.05
U96A U130C	0.06
A94U C131U	0.29
A92G U143C	0.36
A94G U100A	0.21
A94G U100C	0.44
G97A A142C	0.14
G97A A142G	0.02
A92C C128U	0.31
C98G U112C	0.12
G93U U96C	0.06
A92U A138G	0.75
A92U A138U	0.53
U96C U115G	0.21

Variant	self-cleavage
U96C U115A	0.13
U96C U115C	0.32
A92G A142G	0.14
A92G U96A	0.13
U96A G127A	0.06
G97A U132C	0.11
A92U G106U	0.62
U96A U115A	0.08
U96A U115C	0.05
G97C	0.19
G97U	0.06
G97A	0.11
C95U U100C	0.59
A94C U134C	0.09
U96A A138U	0.1
A94U U104C	0.55
A94U U104A	0.19
U96C U134G	0.11
U91C U108A	0.55
A94G A140U	0.33
A94G U132C	0.34
A92G U104C	0.05
C95A A142G	0.08
A92G A138G	0.08

Variant	self-cleavage
A94C A136G	0.07
A92U A124G	0.5
A92C U109C	0
A92C A124G	0
U96C A117U	0.1
U96C A117G	0.2
A92U U104C	0.96
A94C U119C	0.1
A94C U115A	0.1
A92G A117U	0.08
A92G A117G	0
A94G A117C	0.26
A94G A117G	0.36
A94G U134C	0.44
A94G U134A	0.21
A92G C98A	0.08
G97A A121G	0.05
C95A U115C	0.11
C95A A121U	0.05
G97U A140G	0.07
U96A U100C	0.08
A94G G127U	0.09
A92U G127A	0.39
U91C U134A	0.57

Variant	self-cleavage
U91C U134C	0.87
G97A U100A	0.1
G97A U100C	0.33
C95A A138G	0.09
U96G A142G	0.17
G93U U102A	0.02
G93A A94G	0.09
A94G A124G	0.06
C95U C118A	0.13
C99U U143A	0.39
A92C A141G	0.26
U96G U104A	0.05
U96C A107G	0.14
G97A A140G	0.11
A94C A129G	0
U91G C111U	0.02
U96G A136G	0.13
U91C U100A	0.15
U96A A136U	0.09
U96A A136G	0.09
U91G A140G	0.02
A94U C120G	0.3
A92U U102C	0.3
A92U U102A	0.79

Variant	self-cleavage
A94U U112C	0.37
A94U U112A	0.31
U96A C118A	0.02
A92U G114U	0.67
C99U U112C	0.36
C99U U112A	1.12
C95A A136U	0.05
U91G U108C	0
A94U U130A	0.23
C95U U132C	0.21
U96C C146A	0.25
U96C C146U	0.15
G93A G105U	0.02
A92U A142G	0.66
G93A A141U	0.04
G93A A107G	0.06
A92G A136G	0.08
A92G A136U	0.05
U96A G135A	0.03
A92U A94U	0.32
A92U U108C	1.2
C98A U102C	0.13
U96C A129G	0.11
U96C A129U	0.1

Variant	self-cleavage
A92C U132C	0
A94U U143C	0.24
A94U U143A	0.21
A92C A129G	0
C98A C101U	0.09
G97A C111U	0.07
C98U U112C	0.26
G93A C101A	0.04
G93A U115C	0.04
G97A U143C	0.16
A94U U102A	0.33
A92G U108C	1.11
U96A G97A	0.09
U96C A124U	0.14
C95U U102C	0.14
C98A U112C	0.05
U96A C128U	0.07
A92U U100C	0.9
C95G U104C	0.02
A92G G126A	0.13
A94C A140G	0.04
U91G A138G	0
C95A U104C	0.08
A94U G144A	0.4

Variant	self-cleavage
U96A G126A	0.07
C98U C146U	0.32
C99A A129U	0.46
A92G U132A	0.05
U96G G137A	0.08
A94G A138U	0.36
A94G A138C	0.22
G97A U109A	0.07
G97A U109C	0.05
A94U U115C	0.45
A94U U115A	0.31
U96A C113U	0.06
U96C G126A	0.15
A94G U102A	0.27
A94U A107U	0.32
A94U A140U	0.26
A92U C146G	0.41
C95A U102C	0.11
A94G A136G	0.34
C98U A136G	0.55
U96C U108A	0.09
U96G U109A	0
